Experimental data as given in patent publication US20240150440A1 (LUMEN BIOSCIENCE, published 2024).
Like-named read-outs stand apart in the source and are kept apart here.

Experiments:
[1] = target: T1, recombinant SARS-CoV-2 RBD with C-terminal AviTag (SARS-CoV-2, UniProt P0DTC2 319-541); assay: ELISA, competition with coated ACE2-Fc for RBD [Cont. 6]
[2] = target: SARS-COV-2 Wuhan Reference RBD (SARS-CoV-2, UniProt P0DTC2 319-541); assay: ELISA, RBD coated
[3] = target: T1, recombinant SARS-CoV-2 RBD with …; assay: ELISA, competition with coated ACE2-Fc for RBD [Cont. 8]
[4] = target: T1, recombinant SARS-CoV-2 RBD with …; assay: BLI, biotinylated RBD on streptavidin biosensors [Cont. 6]
[5] = target: T1, recombinant SARS-CoV-2 RBD with …
[6] = target: T1, recombinant SARS-CoV-2 RBD with …; assay: ELISA, competition with coated ACE2-Fc for RBD [Cont. 9]

B1: PP1147 MBP-5HVZ-PAPA-R5a-B7-H6 (VHH)
VHH: QVQLVESGGGLVQPGGSLRLSCAASGAFFSYGAIHWFRQAPGKQREEVAAITSGGSTGYADSVKGRFTISRDNAKNTVYLQMNSLKPEDTAVYYCNAGVVWLPSNAAYNLWGQGTQVTVSS
notes: Form: Dimer
[1]
  IC50: 2.4 nM
[2]
  EC50: 0.36 nM

B2: PP1135 MBP-4B0F-PAPA-R5a-B7-H6 (VHH)
VHH: B1 VHH
notes: Form: Heptamer
[1]
  IC50: 18.2 nM

B3: PP1159 MPB-scTRP-PAPA-R5a-B7-H6 (VHH)
VHH: B1 VHH
notes: Form: Trimer
[1]
  IC50: 56.5 nM

B4: PP1097 MBP-5HVZ-PAPA-RN-5-H6 (VHH)
VHH: QVQLVESGGGLVQPGGSLRLSCAASGSSFRILAMHWYRQAPGKNREWVAVITSNGNTYYADSVKGRFTISRDNAKNTVYLQMNSLKPEDTAVYYCNADTLDLDDGATYNYWGQGTQVTVSS
[3]
  IC50: 2.3 nM
[2]
  EC50: 0.25 nM

B5: PP880 MBP-R5a-B5-H6 (VHH)
VHH: QVQLVESGGGLVQPGGSLRLSCAASGDDFIENAISWYRQAPGKGREWVAAVTLGGHSNYADSVKGRFTISRDNAKNTVYLQMNSLKPEDTAVYYCNYPVGIPAVAIDGRRSYGYWGQGTQVTVSS
notes: Form: Monomer
[1]
  IC50: 43.9 nM
[4]
  Kd: 60.8 nM

B6: PP899 MBP-5HVZ-R5a-B5-H6 (VHH)
VHH: B5 VHH
notes: Form: Dimer
[1]
  IC50: 0.9 nM

B7: PP1100 MBP-5HVZ-PAPA-RN-14-H6 (VHH)
VHH: QVQLVESGGGLVQPGGSLRLSCAASGENFSGNLVHWFRQAPGKAREGVATVTSTGSGYYADSVKGRFTISRDNAKNTVYLQMNSLKPEDTAVYYCAAKHQKGEIPYYDWGQGTQVTVSS
notes: Form: Dimer
[3]
  IC50: 3.2 nM
[2]
  EC50: 0.31 nM

B8: PP901 MBP-5HVZ-R1e-B2-H6 (VHH)
VHH: QVQLVESGGGLVQPGGSLRLSCAASGQITAENYMHWYRQAPGKQREWVAAITTGGSTLYADSVKGRFTISRDNAKNTVYLQMNSLKPEDTAVYYCNADRSYFPDYWGQGTQVTVSS
notes: Form: Dimer
[4]
  Kd: 197 nM

B9: MBP-5HVZ-R5C-B2-H6 (VHH, not shown: large carriers; small tags and cut ends)
VHH: QVQLVESGGGLVQPGGSLRLSCAASGSIFSLNWVHWFRQAPGKSREGVASINSGGHADYSDSVKGRFTISRDNAKNTVYLQMNSLKPEDTAVYYCAAGPYGAYNFNSWGQGTQVTVSS
[5]
  IC50: 5.9 nM
  Kd: 57.3 nM

B10: PP1113 MBP-5HVZ-PAPA-RN-29-H6 (VHH)
VHH: QVQLVESGGGLVQPGGSLRLSCAASGYILSENLTAWFRQAPGKAREVVATVTSGDYTNYDDSVKGRFTISRDNAKNTVYLQMNSLKPEDTAVYYCAAGTSDWEVKWSHWGQGTQVTVSS
notes: Form: Dimer
[2]
  EC50: 0.34 nM
[6]
  IC50: 4.9 nM

B11: R5C-A2 (competition ELISA sample) (VHH)
VHH: QVQLVESGGGLVQPGGSLRLSCAASGDIFSKNAMHWVRQAPGKQREFVAGIYSDGSSLYADSVKGRFTISRDNAKNTVYLQMNSLKPEDTAVYYCAALDYSARYRTWGQGTQVTVSS
[5]
  IC50: 13.7 nM
  Kd: 13.2 nM

B12: PP1114 MBP-5HVZ-PAPA-RN-30-H6 (VHH)
VHH: QVQLVESGGGLVQPGGSLRLSCAASGIPASYLNMHWFRQAPGKQREWVAGAGGTNSNYYQDSVKGRFTISRDNAKNTVYLQMNSLKPEDTAVYYCAALDGAESYDYVYPVWGQGTQVTVSS
notes: Form: Dimer
[2]
  EC50: 1.14 nM
[6]
  IC50: 3.4 nM

B13: PP1098 MBP-5HVZ-PAPA-RN-9-H6 (VHH)
VHH: QVQLVESGGGLVQPGGSLRLSCAASGLRFAMTEMAWFRQAPGKQREFVALITEGGSGSYGDSVKGRFTISRDNAKNTVYLQMNSLKPEDTAVYYCAALHYTEGANTESATTFDYWGQGTQVTVSS
[3]
  IC50: 2.3 nM
[2]
  EC50: 0.83 nM

B14: MBP-5HVZ-R5C-E1-H6 (VHH, not shown: large carriers; small tags and cut ends)
VHH: QVQLVESGGGLVQPGGSLRLSCAASGYIFSATVMHWFRQAPGKQREGVASINSTGSSQYADSVKGRFTISRDNAKNTVYLQMNSLKPEDTAVYYCAADGADVVYGNRYWGQGTQVTVSS
[5]
  IC50: 4.5 nM
  Kd: 6.13 nM

B15: PP885 MBP-R5b-C5-H6 (VHH)
VHH: QVQLVESGGGLVQPGGSLRLSCAASGSPFKTQTVHWFRQAPGKGREWVASITSGSGTQYMDSVKGRFTISRDNAKNTVYLQMNSLKPEDTAVYYCAAANDGYGVDWGQGTQVTVSS
notes: Form: Monomer
[4]
  Kd: 88.5 nM

B16: PP1095 MBP-5HVZ-PAPA-RN-2-H6 (VHH)
VHH: QVQLVESGGGLVQPGGSLRLSCAASGSYFSKNAVHWYRQAPGKGREWVAALTNSGSGNYKDSVKGRFTISRDNAKNTVYLQMNSLKPEDTAVYYCTANISESTGQGYDYWGQGTQVTVSS
[3]
  IC50: 3.2 nM
[2]
  EC50: 0.78 nM

B17: PP1094 MBP-5HVZ-PAPA-RN-1-H6 (VHH)
VHH: QVQLVESGGGLVQPGGSLRLSCAASGYIFEGGPTAWFRQAPGKGREFVAAITTSGETSYAYSVKGRFTISRDNAKNTVYLQMNSLKPEDTAVYYCNATDRDETGYDYWGQGTQVTVSS
[3]
  IC50: 7.8 nM
[2]
  EC50: 0.96 nM

B18: MBP-R5C-E3-H6 (VHH, not shown: large carriers; small tags and cut ends)
VHH: QVQLVESGGGLVQPGGSLRLSCAASGSFFSINAVHWFRQAPGKEREFVASISVGDSRSYRDSVKGRFTISRDNAKNTVYLQMNSLKPEDTAVYYCAAQIYITTYELYDYWGQGTQVTVSS
[5]
  Kd: ~1370 nM

B19: MBP-5HVZ-R5C-E3-H6 (VHH, not shown: large carriers; small tags and cut ends)
VHH: B18 VHH
[5]
  IC50: 9.2 nM

B20: PP881 MBP-R5a-F2-H6 (VHH)
VHH: QVQLVESGGGLVQPGGSLRLSCAASGSISSIEAMSWFRQAPGKQREGVATMASGGDTSYADSVKGRFTISRDNAKNTVYLQMNSLKPEDTAVYYCAAQTYRPDTWGRYTFWGQGTQVTVSS
notes: Form: Monomer
[4]
  Kd: 705 nM

B21: PP933 MBP-5HVZ-R5e-C1-H6 (VHH)
VHH: QVQLVESGGGLVQPGGSLRLSCAASGSIPYVQAMSWFRQAPGKGREGVASIGWGGGTYYADSVKGRFTISRDNAKNTVYLQMNSLKPEDTAVYYCAAKFRENFSFYDYWGQGTQVTVSS
notes: Form: Dimer
[3]
  IC50: 1.9 nM
[2]
  EC50: 4.9 nM

B22: PP884 MBP-R1i-A11-H6 (VHH)
VHH: QVQLVESGGGLVQPGGSLRLSCAASGSILQINAIHWFRQAPGKQREEVAAITSGGSTGYADSVKGRFTISRDNAKNTVYLQMNSLKPEDTAVYYCAATSTRGGLDSDYWGQGTQVTVSS
notes: Form: Monomer
[1]
  IC50: 173 nM
[4]
  Kd: 23.7 nM

B23: PP1112 MBP-5HVZ-PAPA-RN-28-H6 (VHH)
VHH: QVQLVESGGGLVQPGGSLRLSCAASGSQFSHNLMSWFRQAPGKQREFVAAITSFGSTGYADSVKGRFTISRDNAKNTVYLQMNSLKPEDTAVYYCAALSSEDTSHYPRNYWGQGTQVTVSS
notes: Form: Dimer
[2]
  EC50: 1.36 nM
[6]
  IC50: 10.5 nM

B24: PP883 MBP-R1e-D4-H6 (VHH)
VHH: QVQLVESGGGLVQPGGSLRLSCAASGSIREINAMHWVRQAPGKGRELVASIDSGSLDYYADSVKGRFTISRDNAKNTVYLQMNSLKPEDTAVYYCAASRSGDYRYWGQGTQVTVSS
notes: Form: Monomer
[4]
  Kd: 47 nM

B25: PP1111 MBP-5HVZ-PAPA-RN-27-H6 (VHH)
VHH: QVQLVESGGGLVQPGGSLRLSCAASGPQFSSNAVSWFRQAPGKEREWVAGITSGGSTDYADSVKGRFTISRDNAKNTVYLQMNSLKPEDTAVYYCTAPSVSDADRRTRDYWGQGTQVTVSS
notes: Form: Dimer
[2]
  EC50: 0.33 nM
[6]
  IC50: 9.4 nM

B26: PP1115 MBP-5HVZ-PAPA-RN-31-H6 (VHH)
VHH: QVQLVESGGGLVQPGGSLRLSCAASGSTGSDYAMHWFRQAPGKDREWVAGISSYGSDSYGDSVKGRFTISRDNAKNTVYLQMNSLKPEDTAVYYCAALQASAGAGYYYDYWGQGTQVTVSS
notes: Form: Dimer
[2]
  EC50: 4.9 nM
[6]
  IC50: 11.6 nM

B27: PP1096 MBP-5HVZ-PAPA-RN-3-H6 (VHH)
VHH: QVQLVESGGGLVQPGGSLRLSCAASGFEFTYRAVHWFRQAPGKGREWVAGVVSGGSTYYADSVKGRFTISRDNAKNTVYLQMNSLKPEDTAVYYCNAGPQAEEDTYDYWGQGTQVTVSS
[3]
  IC50: 46.8 nM
[2]
  EC50: 1.47 nM

B28: MBP-5HVZ-R5C-A1-H6 (VHH, not shown: large carriers; small tags and cut ends)
VHH: QVQLVESGGGLVQPGGSLRLSCAASGLDVSINFMHWYRQAPGKEREGVAGITWQGSTYYADSVKGRFTISRDNAKNTVYLQMNSLKPEDTAVYYCATVWAGGTPNDYWGQGTQVTVSS
[5]
  IC50: 10.3 nM
  Kd: 379 nM

B29: PP922 MBP-R5a-F5-H6 (VHH)
VHH: QVQLVESGGGLVQPGGSLRLSCAASGYHASILAMHWVRQAPGKEREWVASMTWSDMTQYSDSVKGRFTISRDNAKNTVYLQMNSLKPEDTAVYYCAATYVTRDRPWTHWGQGTQVTVSS
notes: Form: Monomer
[3]
  IC50: 97.9 nM

B30: PP935 MBP-5HVZ-S3b-E11-H6 (VHH)
VHH: QVQLVESGGGLVQPGGSLRLSCAASGDIYSQSAMAWYRQAPGKEREFVAAITTTGSRSYKDSVKGRFTISRDNAKNTVYLQMNSLKPEDTAVYYCAAFAVRSSSVSDAYDYWGQGTQVTVSS
notes: Form: Dimer
[3]
  IC50: 12.2 nM
[2]
  EC50: 0.47 nM

B31: MBP-R5C-B1-H6 (VHH, not shown: large carriers; small tags and cut ends)
VHH: QVQLVESGGGLVQPGGSLRLSCAASGSGFSNNAMHWYRQAPGKQREGVAGITSGSVSFYADSVKGRFTISRDNAKNTVYLQMNSLKPEDTAVYYCAAVTGSSTGNAGQGYLTWGQGTQVTVSS
[5]
  Kd: 55.3 nM
